Source: US20160235855A1, “STABLE AQUEOUS PARENTERAL PHARMACEUTICAL COMPOSITIONS OF INSULINOTROPIC PEPTIDES” (SHANGHAI BENEMAE PHARMACEUTICAL CORPORATION, priority 2013, published 2016)
Read-outs that look alike come from different tables or passages of the source.

Key:
[1] = HPLC analysis of GLP-1 on C18 column (chemical stability); type: physicochemical
Description: An investigation method for chemical stability: a test sample was taken, and analyzed on a C18 column (3.5 μm, 300 Å, φ 4.6×50 mm). An analytical method: mobile phase A was 0.1% trifluoroacetic acid, B was the A phase with 80% acetonitrile added therein, the detection wavelength was 280 nm, 60% A and 40% B were balanced for 3 min, and the sample amount was 2 to 5 μL. Elution was performed with linear gradient for 8 min with 40% to 53% of the B phase and 60% to 47% of the A phase. Peak area was calculated using the normalization method. A standard sample was determined with the same method. The peptide concentration in the sample was calculated by comparison with the standard sample, and compared with the determination result at day 0, to calculate the retention of the peptide content in the sample. A higher retention of the peptide content indicated better chemical stability.
The HPLC detection method was performed according to Example 1.
The formulation method and HPLC detection method of the pharmaceutical compositions were performed according to Example 5.

[2] = Thioflavine T fluorescence value (gelatination, physical stability); type: physicochemical; settings: 35 days
Description: A monitoring method for physical stability of the pH value was the fluorescence value, that is, thioflavine T was added into the sample at a final concentration of 5 μmol/L, then the fluorescence absorption value was determined (at an excitation wavelength of 435 nm, and an emission wavelength of 485 nm). The higher the absorption value is, the severer the gelatination phenomena of the sample is, and the poorer the physical stability is.

[3] = WO00/37098, cited from earlier work

Glucagon-like peptide 1 [GLP-1]
Results of HPLC analysis, retention of the peptide content ([1]; pH 3.6, NaCl below 20 mmol/L, 25° C., 30 days): 93.04%
Results of HPLC analysis, retention of the peptide content ([1]; pH 3.6, NaCl below 20 mmol/L, 35° C., 30 days): 86.25%
Results of HPLC analysis, retention of the peptide content ([1]; pH 3.7, NaCl below 20 mmol/L, 25° C., 30 days): 95.15%
Results of HPLC analysis, retention of the peptide content ([1]; pH 3.7, NaCl below 20 mmol/L, 35° C., 30 days): 86.11%
Results of HPLC analysis, retention of the peptide content ([1]; pH 3.8, NaCl below 20 mmol/L, 25° C., 30 days): 97.10%
Results of HPLC analysis, retention of the peptide content ([1]; pH 3.8, NaCl below 20 mmol/L, 35° C., 30 days): 89.48%
Results of HPLC analysis, retention of the peptide content ([1]; pH 3.9, NaCl below 20 mmol/L, 25° C., 30 days): 98.08%
Results of HPLC analysis, retention of the peptide content ([1]; pH 3.9, NaCl below 20 mmol/L, 35° C., 30 days): 90.36%
Results of HPLC analysis, retention of the peptide content ([1]; pH 4.0, NaCl 0 mg/mL, 35° C., 8 days): 96.07%
Results of HPLC analysis, retention of the peptide content ([1]; pH 4.0, NaCl 0 mg/mL, 45° C., 8 days): 92.77%
Results of HPLC analysis, retention of the peptide content ([1]; pH 4.0, NaCl 1.17 mg/mL, 35° C., 8 days): 97.43%
Results of HPLC analysis, retention of the peptide content ([1]; pH 4.0, NaCl 1.17 mg/mL, 45° C., 8 days): 93.76%
Results of HPLC analysis, retention of the peptide content ([1]; pH 4.0, NaCl 8.77 mg/mL, 35° C., 8 days): 98.73%
Results of HPLC analysis, retention of the peptide content ([1]; pH 4.0, NaCl 8.77 mg/mL, 45° C., 8 days): Turbid
Results of HPLC analysis, retention of the peptide content ([1]; pH 4.0, NaCl below 20 mmol/L, 25° C., 30 days): 97.85%
Results of HPLC analysis, retention of the peptide content ([1]; pH 4.0, NaCl below 20 mmol/L, 35° C., 30 days): 91.80%
Results of HPLC analysis, retention of the peptide content ([1]; pH 4.1, NaCl below 20 mmol/L, 25° C., 30 days): 98.90%
Results of HPLC analysis, retention of the peptide content ([1]; pH 4.1, NaCl below 20 mmol/L, 35° C., 30 days): 91.35%
Results of HPLC analysis, retention of the peptide content ([1]; pH 4.2, NaCl below 20 mmol/L, 25° C., 30 days): 98.24%
Results of HPLC analysis, retention of the peptide content ([1]; pH 4.2, NaCl below 20 mmol/L, 35° C., 30 days): 93.96%
Results of HPLC analysis, retention of the peptide content ([1]; pH 4.5, NaCl 0 mg/mL, 35° C., 8 days): 97.23%
Results of HPLC analysis, retention of the peptide content ([1]; pH 4.5, NaCl 0 mg/mL, 45° C., 8 days): 92.45%
Results of HPLC analysis, retention of the peptide content ([1]; pH 4.5, NaCl 1.17 mg/mL, 35° C., 8 days): 95.29%
Results of HPLC analysis, retention of the peptide content ([1]; pH 4.5, NaCl 1.17 mg/mL, 45° C., 8 days): Turbid
Results of HPLC analysis, retention of the peptide content ([1]; pH 4.5, NaCl 8.77 mg/mL, 35° C., 8 days): Turbid
Results of HPLC analysis, retention of the peptide content ([1]; pH 4.5, NaCl 8.77 mg/mL, 45° C., 8 days): Turbid
Results of HPLC analysis, retention of the peptide content ([1]; pH 7.0, NaCl 0 mg/mL, 35° C., 8 days): 94.30%
Results of HPLC analysis, retention of the peptide content ([1]; pH 7.0, NaCl 0 mg/mL, 45° C., 8 days): 88.83%
Results of HPLC analysis, retention of the peptide content ([1]; pH 7.0, NaCl 1.17 mg/mL, 35° C., 8 days): 93.35%
Results of HPLC analysis, retention of the peptide content ([1]; pH 7.0, NaCl 1.17 mg/mL, 45° C., 8 days): 90.43%
Results of HPLC analysis, retention of the peptide content ([1]; pH 7.0, NaCl 8.77 mg/mL, 35° C., 8 days): 94.34%
Results of HPLC analysis, retention of the peptide content ([1]; pH 7.0, NaCl 8.77 mg/mL, 45° C., 8 days): 92.79%
Results of HPLC analysis, retention of the peptide content ([1]; pH 7.0, NaCl 29.22 mg/mL, 35° C., 8 days): 95.83%
Results of HPLC analysis, retention of the peptide content ([1]; pH 7.0, NaCl 29.22 mg/mL, 45° C., 8 days): 95.37%
chemical stability ([1]; pH 7.0 to 7.5): poor
Results of HPLC analysis, retention of the peptide content ([1]; pH 7.5, NaCl 0 mg/mL, 35° C., 8 days): 90.89%
Results of HPLC analysis, retention of the peptide content ([1]; pH 7.5, NaCl 1.17 mg/mL, 35° C., 8 days): 91.88%
Results of HPLC analysis, retention of the peptide content ([1]; pH 7.5, NaCl 1.17 mg/mL, 45° C., 8 days): 85.88%
Results of HPLC analysis, retention of the peptide content ([1]; pH 7.5, NaCl 8.77 mg/mL, 35° C., 8 days): 92.15%
Results of HPLC analysis, retention of the peptide content ([1]; pH 7.5, NaCl 8.77 mg/mL, 45° C., 8 days): 87.48%
Results of HPLC analysis, retention of the peptide content ([1]; pH 7.5, NaCl 29.22 mg/mL, 35° C., 8 days): 93.74%
Results of HPLC analysis, retention of the peptide content ([1]; pH 7.5, NaCl 29.22 mg/mL, 45° C., 8 days): 88.04%
chemical instability ([1]; pH value lower than about 3.5): acid hydrolysis
Fluorescence value ([2]; pH 3.6, NaCl below 20 mmol/L, 35° C.): 9.95
Fluorescence value ([2]; pH 3.7, NaCl below 20 mmol/L, 25° C.): 9.11
Fluorescence value ([2]; pH 3.7, NaCl below 20 mmol/L, 35° C.): 14.55
Fluorescence value ([2]; pH 3.8, NaCl below 20 mmol/L, 25° C.): 11.01
Fluorescence value ([2]; pH 3.8, NaCl below 20 mmol/L, 35° C.): 31.58
Fluorescence value ([2]; pH 3.9, NaCl below 20 mmol/L, 25° C.): 26.46
Fluorescence value ([2]; pH 3.9, NaCl below 20 mmol/L, 35° C.): 78.27
Fluorescence value ([2]; pH 4.0, NaCl below 20 mmol/L, 25° C.): 59.32
Fluorescence value ([2]; pH 4.0, NaCl below 20 mmol/L, 35° C.): 113.18
Fluorescence value ([2]; pH 4.1, NaCl below 20 mmol/L, 25° C.): 139.48
Fluorescence value ([2]; pH 4.1, NaCl below 20 mmol/L, 35° C.): 157.00
physical stability ([3]; between pH 6.8 and 7.5): poor
chemical stability ([3]; pH value greater than 8.8): reduced
appearance of the formulation ([3]; pH value less than 8.0 after the addition of a preservative): turbid
